Results reported in publication PMC9519043.

What was measured:
[1] = molecular target: SARS-CoV-2 B.1.1.7 (S protein) (SARS-CoV-2 variant B.1.1.7) (UniProt P0DTC2); assay: SPR; conditions: SPR (BIAcore T200, […], pH not stated
[2] = molecular target: SARS-CoV-2 B.1.351 (S protein) (SARS-CoV-2 variant B.1.351) (UniProt P0DTC2); assay: SPR; conditions: SPR (BIAcore T200, […], pH not stated
[3] = molecular target: SARS-CoV-2 B.1.1.7 (S protein) (SARS-CoV-2 variant B.1.1.7) (UniProt P0DTC2); assay: microfluidic affinity capture, RT-qPCR; conditions: 5' amino C12 linker and TEG spacer 9; 3' inverted dT; SPR (BIAcore T200, […], pH not stated; […]

Row | Sequence | Kd [1] | Kd [2] | binding signal [3]
1 | CAGCACCGACCTTGTGCTTTGGGAGTGCTGGTCCAAGGGCGTTAATGGACA [51-nt SARS-CoV-2 aptamer (Song et al.), SPR form] | 1000 nM | 1000 nM | 
2 | CAGCACCGACCTTGTGCTTTGGGAGTGCTGGTCCAAGGGCGTTAATGGACA [51-nt SARS-CoV-2 aptamer, chip form] |  |  | 35 % recovery
